Measurements taken from IntAct's records for PubMed 10835346.

B1: Dolichol phosphate-mannose biosynthesis regulatory protein (Rattus norvegicus (Rat)), Q9Z325 (parent)
chain: MATGTDQAVGFGLVAVSLIIFTYYTTWVILLPFIDSQHVIHKYFLPRAYAVLLPLAAGLLLLLFVGLFITYVLLKSQKVTKKAQ
partner: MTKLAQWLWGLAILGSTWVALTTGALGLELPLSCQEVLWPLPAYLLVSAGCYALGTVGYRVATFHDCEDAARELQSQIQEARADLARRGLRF

Variants of: B1
Conditions: with dpm3_human DPM3, Q9P2X0

Variant | effect of a mutation on the interaction
MATGTDQAVGFGLVAVSLIILTSYTTWVILLPFIDSQHVIHKYFLPRAYAVLLPLAAGLLLLLFVGLFITYVLLKSQKVTKKAQ [F21L;Y23S] | decreasing interaction
